Measured values reported in the supplement of paper PMC10065799, “High-throughput profiling of sequence recognition by tyrosine kinases and SH2 domains using bacterial peptide display” (eLife, 2023).

Tests used:
c-Src SH2 = assay: SH2 binding enrichment of the phosphorylated peptide, bacterial display (enrichment ratio); higher = better substrate or ligand; peptides without Tyr show the background
SHP2-C SH2 = assay: as above
Grb2 SH2 = Grb2 SH2 (UniProt P62993); assay: as above
FGFR3 = FGFR3 (UniProt P22607); assay: phosphorylation enrichment, bacterial display (enrichment ratio); higher = better substrate or ligand; peptides without Tyr show the background
Fyn = Fyn (UniProt P06241); assay: as above
FGFR1 = FGFR1 (UniProt P11362); assay: as above
EPHB1 = EPHB1 (UniProt P54762); assay: as above
c-Src = assay: as above
c-Abl (mouse) = assay: as above
MERTK = MERTK (UniProt Q12866); assay: as above
AncSZ = assay: as above
Fes = Fes (UniProt P07332); assay: as above
Hck = Hck (UniProt P08631); assay: as above
EPHB2 = EPHB2 (UniProt P29323); assay: as above
Fer (mouse) = assay: as above
Jak2 = Jak2 (UniProt O60674); assay: as above
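Wherever SH2 binding enrichment of the phosphorylated peptide, bacterial display is given: peptide library displayed on the E. coli surface as eCPX fusions, selected cells deep-sequenced, score is each peptide's frequency after selection divided by its frequency in the input.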
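Wherever phosphorylation enrichment, bacterial display is given: 11-residue human phosphosite peptides and single-mutation variants displayed on the E. coli surface, counted by deep sequencing, each peptide's frequency after selection divided by its frequency in the unselected input library; frequency after pTyr selection over input frequency; kinase dosed for 20-30% of maximal phosphorylation in three min.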

Sequence of EPHB1 (P54762 whole entry, looked up): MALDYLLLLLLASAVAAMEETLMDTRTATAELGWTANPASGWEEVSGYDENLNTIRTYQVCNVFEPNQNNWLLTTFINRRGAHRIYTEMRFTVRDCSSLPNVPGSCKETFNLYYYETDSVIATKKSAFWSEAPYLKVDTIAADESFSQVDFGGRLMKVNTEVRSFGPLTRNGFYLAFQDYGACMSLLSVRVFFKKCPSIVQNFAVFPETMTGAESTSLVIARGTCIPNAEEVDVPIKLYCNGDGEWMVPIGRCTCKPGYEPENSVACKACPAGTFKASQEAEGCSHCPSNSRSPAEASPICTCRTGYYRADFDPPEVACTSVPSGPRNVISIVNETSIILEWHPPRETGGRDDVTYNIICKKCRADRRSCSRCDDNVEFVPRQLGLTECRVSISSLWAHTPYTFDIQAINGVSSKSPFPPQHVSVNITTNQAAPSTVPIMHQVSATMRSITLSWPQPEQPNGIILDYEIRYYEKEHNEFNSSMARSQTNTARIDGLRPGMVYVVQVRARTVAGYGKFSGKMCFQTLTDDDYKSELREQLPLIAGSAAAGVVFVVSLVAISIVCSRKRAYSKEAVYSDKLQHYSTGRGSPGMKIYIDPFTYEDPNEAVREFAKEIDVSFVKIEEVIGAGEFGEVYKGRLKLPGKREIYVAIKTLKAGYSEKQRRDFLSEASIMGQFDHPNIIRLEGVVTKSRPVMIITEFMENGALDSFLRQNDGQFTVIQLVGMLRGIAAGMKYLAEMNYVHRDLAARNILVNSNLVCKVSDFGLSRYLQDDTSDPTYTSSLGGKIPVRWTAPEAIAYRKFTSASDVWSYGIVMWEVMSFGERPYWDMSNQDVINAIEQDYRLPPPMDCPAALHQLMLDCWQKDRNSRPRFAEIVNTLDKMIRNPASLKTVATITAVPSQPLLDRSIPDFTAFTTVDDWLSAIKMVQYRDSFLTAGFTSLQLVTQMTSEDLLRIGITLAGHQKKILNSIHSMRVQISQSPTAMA
Sequence of Fyn (P06241 whole entry, looked up): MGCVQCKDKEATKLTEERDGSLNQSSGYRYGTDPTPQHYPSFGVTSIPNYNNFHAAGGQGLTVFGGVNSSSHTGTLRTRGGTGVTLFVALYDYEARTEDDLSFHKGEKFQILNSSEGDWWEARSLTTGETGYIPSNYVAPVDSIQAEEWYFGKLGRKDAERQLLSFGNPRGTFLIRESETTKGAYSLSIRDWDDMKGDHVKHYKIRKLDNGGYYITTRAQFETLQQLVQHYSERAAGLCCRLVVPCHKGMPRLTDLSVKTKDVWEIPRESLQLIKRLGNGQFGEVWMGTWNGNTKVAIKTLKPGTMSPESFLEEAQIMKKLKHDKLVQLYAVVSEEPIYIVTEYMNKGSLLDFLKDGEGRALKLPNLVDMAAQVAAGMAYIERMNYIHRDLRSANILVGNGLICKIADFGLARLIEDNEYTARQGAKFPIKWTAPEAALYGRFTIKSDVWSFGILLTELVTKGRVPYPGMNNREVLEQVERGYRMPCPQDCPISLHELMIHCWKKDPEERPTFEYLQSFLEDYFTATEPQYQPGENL
Sequence of MERTK (Q12866 whole entry, looked up): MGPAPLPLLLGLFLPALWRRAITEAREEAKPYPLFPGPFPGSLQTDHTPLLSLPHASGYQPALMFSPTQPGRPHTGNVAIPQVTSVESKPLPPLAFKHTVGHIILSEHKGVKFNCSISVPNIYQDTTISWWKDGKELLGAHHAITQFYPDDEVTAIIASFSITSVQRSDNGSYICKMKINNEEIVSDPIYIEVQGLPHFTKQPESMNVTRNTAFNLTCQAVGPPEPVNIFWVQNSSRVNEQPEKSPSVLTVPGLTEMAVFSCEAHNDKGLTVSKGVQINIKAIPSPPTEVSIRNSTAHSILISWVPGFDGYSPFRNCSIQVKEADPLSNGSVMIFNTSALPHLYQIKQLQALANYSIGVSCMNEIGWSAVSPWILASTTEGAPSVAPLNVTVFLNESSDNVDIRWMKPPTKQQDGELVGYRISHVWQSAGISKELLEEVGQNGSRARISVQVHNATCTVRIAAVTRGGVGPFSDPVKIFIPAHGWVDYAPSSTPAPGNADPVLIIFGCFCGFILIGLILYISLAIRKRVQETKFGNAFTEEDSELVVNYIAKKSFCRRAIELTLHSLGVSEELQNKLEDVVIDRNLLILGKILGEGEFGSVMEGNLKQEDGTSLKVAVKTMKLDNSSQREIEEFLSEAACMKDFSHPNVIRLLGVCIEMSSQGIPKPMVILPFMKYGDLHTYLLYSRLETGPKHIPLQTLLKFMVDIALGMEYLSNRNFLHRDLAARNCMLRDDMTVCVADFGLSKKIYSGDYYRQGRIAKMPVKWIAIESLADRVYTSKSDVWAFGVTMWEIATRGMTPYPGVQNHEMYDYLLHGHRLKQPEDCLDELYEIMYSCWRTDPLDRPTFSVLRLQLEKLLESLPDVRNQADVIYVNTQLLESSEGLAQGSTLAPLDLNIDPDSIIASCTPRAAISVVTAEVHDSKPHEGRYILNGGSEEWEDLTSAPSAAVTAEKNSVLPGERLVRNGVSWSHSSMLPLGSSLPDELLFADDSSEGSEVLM
Sequence of Fes (P07332 whole entry, looked up): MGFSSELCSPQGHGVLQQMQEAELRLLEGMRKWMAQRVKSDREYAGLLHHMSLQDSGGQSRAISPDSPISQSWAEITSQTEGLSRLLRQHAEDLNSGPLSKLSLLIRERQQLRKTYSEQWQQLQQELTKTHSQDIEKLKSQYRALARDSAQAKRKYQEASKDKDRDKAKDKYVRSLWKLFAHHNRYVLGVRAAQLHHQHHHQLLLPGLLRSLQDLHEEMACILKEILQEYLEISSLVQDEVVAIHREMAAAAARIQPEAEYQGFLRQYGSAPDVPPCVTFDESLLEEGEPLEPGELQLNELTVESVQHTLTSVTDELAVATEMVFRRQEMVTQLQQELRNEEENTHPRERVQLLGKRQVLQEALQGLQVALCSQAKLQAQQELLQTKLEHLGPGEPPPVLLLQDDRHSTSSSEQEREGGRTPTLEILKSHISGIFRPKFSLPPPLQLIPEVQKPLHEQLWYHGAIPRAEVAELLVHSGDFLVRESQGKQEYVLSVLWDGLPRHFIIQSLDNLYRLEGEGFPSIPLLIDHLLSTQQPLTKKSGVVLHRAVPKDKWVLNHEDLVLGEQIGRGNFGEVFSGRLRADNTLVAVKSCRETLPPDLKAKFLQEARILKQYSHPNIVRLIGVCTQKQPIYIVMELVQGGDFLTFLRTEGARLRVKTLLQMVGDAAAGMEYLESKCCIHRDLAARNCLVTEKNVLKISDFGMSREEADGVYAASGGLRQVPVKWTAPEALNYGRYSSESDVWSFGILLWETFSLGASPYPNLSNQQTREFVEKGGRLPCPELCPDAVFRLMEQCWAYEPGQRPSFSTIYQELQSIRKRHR
Sequence of EPHB2 (P29323 whole entry, looked up): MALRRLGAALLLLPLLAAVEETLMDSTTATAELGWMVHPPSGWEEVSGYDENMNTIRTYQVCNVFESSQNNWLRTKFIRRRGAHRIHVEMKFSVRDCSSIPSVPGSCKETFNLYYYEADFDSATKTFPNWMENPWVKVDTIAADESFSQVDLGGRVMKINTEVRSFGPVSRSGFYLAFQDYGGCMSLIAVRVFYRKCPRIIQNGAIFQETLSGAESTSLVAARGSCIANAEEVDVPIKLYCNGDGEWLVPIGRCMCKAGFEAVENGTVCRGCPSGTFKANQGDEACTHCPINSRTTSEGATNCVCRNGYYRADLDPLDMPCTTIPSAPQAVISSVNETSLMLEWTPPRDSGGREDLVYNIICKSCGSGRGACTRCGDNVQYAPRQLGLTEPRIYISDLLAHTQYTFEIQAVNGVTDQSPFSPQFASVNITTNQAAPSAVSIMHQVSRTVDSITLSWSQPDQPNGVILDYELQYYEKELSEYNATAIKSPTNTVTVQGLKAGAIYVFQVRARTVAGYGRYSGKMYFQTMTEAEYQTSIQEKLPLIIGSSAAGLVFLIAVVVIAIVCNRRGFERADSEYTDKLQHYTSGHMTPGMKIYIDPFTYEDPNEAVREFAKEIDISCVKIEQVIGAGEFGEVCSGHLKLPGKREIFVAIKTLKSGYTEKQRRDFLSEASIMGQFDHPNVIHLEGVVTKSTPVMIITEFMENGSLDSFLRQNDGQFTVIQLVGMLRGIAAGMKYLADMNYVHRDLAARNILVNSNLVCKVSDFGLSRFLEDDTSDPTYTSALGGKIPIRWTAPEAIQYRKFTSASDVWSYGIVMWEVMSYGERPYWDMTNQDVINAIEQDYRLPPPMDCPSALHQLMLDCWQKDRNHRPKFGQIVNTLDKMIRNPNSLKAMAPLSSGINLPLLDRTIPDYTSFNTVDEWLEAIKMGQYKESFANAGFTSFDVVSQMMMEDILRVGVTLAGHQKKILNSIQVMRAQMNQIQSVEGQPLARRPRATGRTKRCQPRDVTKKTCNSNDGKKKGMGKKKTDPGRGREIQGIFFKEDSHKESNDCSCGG
Sequence of Hck (P08631 whole entry, looked up): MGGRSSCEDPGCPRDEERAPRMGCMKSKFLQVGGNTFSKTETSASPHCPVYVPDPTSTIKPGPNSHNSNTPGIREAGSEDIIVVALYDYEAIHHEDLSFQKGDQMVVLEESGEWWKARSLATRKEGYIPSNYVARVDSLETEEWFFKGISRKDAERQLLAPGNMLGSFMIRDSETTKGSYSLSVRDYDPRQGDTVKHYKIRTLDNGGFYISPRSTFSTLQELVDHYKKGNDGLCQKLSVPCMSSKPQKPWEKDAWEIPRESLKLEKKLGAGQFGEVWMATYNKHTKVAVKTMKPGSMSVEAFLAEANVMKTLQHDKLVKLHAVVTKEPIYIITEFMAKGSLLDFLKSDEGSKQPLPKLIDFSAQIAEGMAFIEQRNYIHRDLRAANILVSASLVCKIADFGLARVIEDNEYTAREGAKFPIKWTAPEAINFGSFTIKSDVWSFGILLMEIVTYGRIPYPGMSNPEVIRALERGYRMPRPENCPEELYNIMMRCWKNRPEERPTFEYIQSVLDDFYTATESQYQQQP

| Sequence | SH2 binding enrichment (c-Src SH2) | SH2 binding enrichment (SHP2-C SH2) | SH2 binding enrichment (Grb2 SH2) | phosphorylation enrichment (FGFR3) | phosphorylation enrichment (Fyn) | phosphorylation enrichment (FGFR1) | phosphorylation enrichment (EPHB1) | phosphorylation enrichment (c-Src) | phosphorylation enrichment (c-Abl (mouse)) | phosphorylation enrichment (MERTK) | phosphorylation enrichment (AncSZ) | phosphorylation enrichment (Fes) | phosphorylation enrichment (Hck) | phosphorylation enrichment (EPHB2) | phosphorylation enrichment (Fer (mouse)) | phosphorylation enrichment (Jak2) |
| --- | --- | --- | --- | --- | --- | --- | --- | --- | --- | --- | --- | --- | --- | --- | --- | --- |
| RHRSGYVLIAM [EFR3A_Y73] | 1.73 | 2.72 | 2.09 | 0.773 | 0.605 | 0.737 | 0.307 | 0.284 | 0.528 | 0.475 | 1.31 | 1.37 | 0.638 | 0.708 | 1.1 | 0.79 |
| RGYRVCYTPDS [PTPRF_Y450_Y450C] | 0.41 | 0.687 | 0.534 | 1.36 | 0.602 | 0.784 | 0.892 | 0.985 | 1.16 | 0.634 | 1.32 | 1.61 | 0.618 | 0.909 | 0.71 | 1.86 |
| PSDSGYSFETI [MAP1B_Y1921_YF] | 2.13 | 0.874 | 0.971 | 1.05 | 0.703 | 0.633 | 0.639 | 0.405 | 0.763 | 0.641 | 1.05 | 1.25 | 0.635 | 1.1 | 0.608 | 1.25 |
| AGADGYDYLAP [FOXL2_Y186_G187D] | 4.34 | 0.478 | 0.89 | 0.783 | 0.534 | 0.611 | 0.585 | 0.388 | 0.655 | 0.647 | 3.5 | 0.99 | 0.903 | 0.587 | 0.62 | 0.997 |
| KLLRLYAVVTR [LYN_Y306_V303L] | 1.21 | 2.42 | 1.12 | 0.644 | 0.451 | 0.409 | 0.982 | 0.544 | 0.918 | 0.581 | 0.997 | 1.04 | 0.468 | 0.594 | 0.51 | 1.05 |
| ESDFTYSSSFE [SRPK2_Y427_YF] | 0.572 | 0.747 | 0.735 | 0.723 | 0.821 | 0.53 | 0.531 | 1.08 | 0.614 | 0.438 | 1.03 | 1.09 | 0.752 | 0.537 | 0.536 | 1.02 |
| NLTLKYPIEHG [ACTA1_Y71_I66N] | 0.507 | 0.718 | 0.804 | 0.549 | 0.47 | 0.598 | 0.493 | 0.417 | 0.717 | 0.407 | 0.767 | 0.93 | 0.446 | 0.541 | 0.375 | 0.669 |
| QNTADYYDLYG [PTPN11_Y62_G60A] | 0.7 | 0.739 | 1.25 | 14.1 | 4.14 | 15.3 | 12.4 | 4.18 | 0.722 | 1.68 | 2.62 | 1.02 | 3.94 | 11.9 | 0.762 | 2.14 |
| KWRGQYDVAIE [BTK_Y425_K430E] | 3.07 | 0.823 | 1.01 | 0.481 | 0.39 | 0.448 | 0.441 | 0.437 | 0.537 | 0.424 | 0.631 | 0.774 | 0.509 | 0.531 | 0.505 | 0.708 |
| DDKQPYEKKAE [HMGB1_Y144_A149E] | 0.736 | 0.756 | 1.09 | 0.631 | 0.53 | 0.529 | 0.516 | 0.43 | 0.828 | 0.515 | 1.12 | 1.04 | 0.579 | 0.645 | 0.464 | 0.921 |
| ADLAKYICENQ [ALB_Y287] | 0.607 | 0.754 | 0.868 | 0.788 | 0.461 | 0.485 | 0.672 | 0.505 | 0.83 | 0.386 | 0.979 | 1.13 | 0.627 | 0.63 | 0.459 | 1.09 |
| RRNTYYASIAK [ACADM_Y353] | 0.953 | 1.66 | 0.889 | 0.76 | 0.762 | 0.536 | 0.702 | 0.81 | 0.939 | 1.13 | 0.902 | 0.889 | 0.853 | 0.541 | 0.611 | 1.12 |
| YTFTSYYMHWV [IGHV1-46_Y51] | 0.613 | 1.1 | 0.978 | 2.89 | 0.771 | 3.64 | 1.84 | 0.952 | 1.06 | 4.16 | 1.64 | 1.71 | 1.3 | 1.27 | 1.78 | 3.85 |
| TQRPYYKGGGG [TYROBP_Y112] | 0.93 | 0.765 | 1.08 | 0.455 | 0.417 | 0.558 | 0.39 | 0.438 | 0.573 | 0.553 | 0.49 | 0.666 | 0.377 | 0.303 | 0.419 | 0.537 |
| AFLQTYSHEVS [PCDHGA5_Y753] | 0.57 | 0.873 | 1.01 | 0.683 | 0.602 | 0.442 | 0.584 | 0.812 | 0.518 | 0.585 | 0.845 | 0.971 | 0.551 | 0.64 | 0.531 | 0.957 |
| SILAVYSKDNF [PANK2_Y400_YF] | 0.716 | 0.975 | 0.802 | 0.709 | 0.862 | 0.662 | 0.58 | 1.94 | 0.522 | 0.995 | 0.868 | 1.69 | 0.872 | 0.76 | 0.438 | 0.867 |
| SVICTYSPALN [TP53_Y126_T123I] | 0.448 | 0.731 | 0.838 | 0.779 | 0.546 | 0.61 | 0.59 | 0.58 | 0.97 | 0.438 | 1.36 | 1.44 | 0.523 | 0.673 | 0.651 | 1.03 |

| Sequence | SH2 binding enrichment (c-Src SH2) | SH2 binding enrichment (SHP2-C SH2) | SH2 binding enrichment (Grb2 SH2) | phosphorylation enrichment (FGFR3) | phosphorylation enrichment (Fyn) | phosphorylation enrichment (FGFR1) | phosphorylation enrichment (EPHB1) | phosphorylation enrichment (c-Src) | phosphorylation enrichment (c-Abl (mouse)) | phosphorylation enrichment (MERTK) | phosphorylation enrichment (AncSZ) | phosphorylation enrichment (Fes) | phosphorylation enrichment (Hck) | phosphorylation enrichment (EPHB2) | phosphorylation enrichment (Fer (mouse)) | phosphorylation enrichment (Jak2) |
| --- | --- | --- | --- | --- | --- | --- | --- | --- | --- | --- | --- | --- | --- | --- | --- | --- |
| VLALWYYYLTH [ZDHHC23_Y127] | 1.5 | 1.62 | 2.15 | 5.65 | 0.646 | 6.87 | 0.81 | 1.24 | 0.964 | 2.99 | 1.45 | 1.64 | 0.783 | 0.74 | 0.724 | 2.57 |
| LHRHAYPEQQQ [DPPA2_Y127_R131Q] | 0.906 | 0.839 | 1.02 | 0.828 | 0.824 | 1.07 | 0.837 | 0.559 | 0.716 | 0.401 | 0.726 | 0.901 | 0.474 | 0.811 | 0.743 | 0.645 |
| GISDEYHVIRR [GCDH_Y398_H403R] | 0.835 | 0.889 | 0.833 | 0.881 | 0.517 | 1.46 | 0.529 | 0.621 | 0.607 | 0.457 | 0.983 | 0.792 | 1.5 | 0.541 | 0.471 | 0.719 |
| KEELAYLKKNH [KRT14_Y248] | 0.482 | 0.761 | 0.912 | 0.515 | 0.395 | 0.451 | 0.413 | 0.35 | 0.528 | 0.333 | 0.597 | 0.742 | 0.541 | 0.422 | 0.375 | 0.512 |
| SGDDGYAKDAK [TENM4_Y1530] | 0.445 | 0.577 | 0.733 | 0.562 | 0.564 | 0.501 | 0.454 | 0.409 | 0.456 | 0.386 | 0.836 | 0.741 | 0.584 | 0.623 | 0.494 | 0.456 |
| TSHKGYVAFLE [CARD9_Y76_G72S] | 2.64 | 0.724 | 0.877 | 0.554 | 0.353 | 0.477 | 0.451 | 0.354 | 0.602 | 0.38 | 0.707 | 0.762 | 0.38 | 0.404 | 0.315 | 0.676 |
| HLATEYVFSDF [PANX1_Y10_Q5H] | 0.576 | 0.884 | 0.755 | 1.23 | 0.935 | 1.67 | 0.808 | 1.28 | 0.863 | 0.639 | 2.12 | 1.39 | 0.661 | 1.04 | 0.788 | 1.17 |
| FKIFRYTLNDN [FN1_Y1975_L1974R_YF] | 0.548 | 0.958 | 1.02 | 0.589 | 0.42 | 0.529 | 0.518 | 0.36 | 0.614 | 0.377 | 1.02 | 1.03 | 0.464 | 0.525 | 0.403 | 1.01 |
| TKGNEYVFRVA | 0.469 | 1.39 | 0.871 | 0.619 | 0.496 | 0.519 | 0.415 | 0.489 | 0.537 | 0.452 | 0.826 | 0.82 | 0.511 | 0.565 | 0.386 | 0.549 |
| ACEVLYNIAFM [NCF2_Y125] | 0.434 | 0.592 | 0.768 | 1.49 | 1.97 | 0.976 | 0.983 | 2.17 | 2.57 | 2.03 | 2.01 | 1.53 | 2.45 | 0.859 | 5.68 | 1.11 |
| NACGLYYKLHN [GATA2_Y376] | 0.716 | 0.547 | 0.739 | 1.48 | 0.504 | 1.43 | 1.13 | 1.54 | 0.922 | 2.29 | 1.5 | 1.3 | 1.21 | 0.774 | 0.56 | 2.27 |
| RPSELYFSKIG [SMG1_Y2253_YF] | 0.557 | 0.919 | 1.04 | 0.654 | 0.546 | 0.641 | 0.49 | 0.623 | 0.687 | 0.791 | 0.605 | 0.671 | 1.74 | 0.457 | 0.421 | 0.51 |
| LARDMCDKEFF [MET_Y1230_Y1230C_YF] | 0.475 | 0.676 | 0.778 | 1.06 | 0.513 | 0.492 | 0.61 | 0.715 | 1.42 | 0.697 | 1.79 | 2.12 | 0.653 | 0.816 | 0.738 | 1.34 |
| DSLASYLDKVR [KRT10_Y160_R156S] | 0.579 | 0.772 | 0.867 | 0.558 | 0.448 | 0.5 | 0.491 | 0.46 | 0.629 | 0.46 | 0.701 | 0.78 | 0.469 | 0.4 | 0.416 | 0.682 |
| VHFARYLAMNK [HARS1_Y138_P134H] | 0.403 | 0.72 | 0.931 | 0.771 | 0.557 | 0.511 | 0.504 | 0.553 | 0.565 | 0.509 | 0.864 | 0.902 | 0.506 | 0.555 | 0.44 | 0.661 |
| TVLEPYADPYY [ZC3H18_Y367] | 1.29 | 0.262 | 0.773 | 0.905 | 1.23 | 0.785 | 0.566 | 2.44 | 1.25 | 0.712 | 2.42 | 1.69 | 0.834 | 0.697 | 0.516 | 1.58 |
